According to a protein production outcome set (Wang et al. 2014):

Experiment: label from the status in PepcDB records
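Note: failed if final PepcDB status was selected cloned or expressed and not failed if soluble or beyond.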

Sequence | protein production
MRAAALAGAAGVVLCLLGGIGGAVAALSLWLAQPAFALAVSWARGTRAVPGQPRAIAQALPPLLAIWGVGLLALAALISWPLTALRDSGSLAAALALSVAVSAALLGLWRTWPLWGEVERDGGALAPRWQALAAQELHAWRGLLAAALVLAMCTLAVVLAWPGWLSGGLRWGLAVAACVLLPVAHLLLQRTPAPMRSDVPQTRQAADFFSEAAAEPRPLEPVAQHQLVPELFEAARSGRVDRALQLLEAGADPQALPLPEWRDQRSLPALAAVLPDLRLLRELIVRRVDVNQPHRGMTPLLAATRDSWHGRPDAVMTLLANGADPRASDNDGNTPLHHAVRSSDPGVAALLHDAAAELDALNNEGHSPLAMACQVGNWRLAKFLLERGAQSEPEGGAPVLLAAAGTEEDDPAGVQLLLKHKARVDARDRQRRSALHEAALAGHGDIVEALLSAGANLEARDLLGRTPWLDAARQARSAVLERLVARKADVLAIDGDGRNALMLACAADNVSPALIRRLLDLQVPADSVDAHGRRAVDVAAEAGRWAIVQLLDPAYPLPAAVSDAQGDTPGAAVLPDRPPLVLLREGLQLGQRDGLVALARLCAPDELGGLLHDAHLALNAEAVDWLLRHGADAEVRDACGDVPMFALLSRGVEAVPALQALLRHGVSPAGAGGLTRLLSACVQHDAASRGLEQFALELLERGADPFAPSAAGDPPLSLAVRLGWLRLQHWLLEHGVDREARDSHGMTALHLATALGRDASLKLLVKQGASPEARAADGQTPLGVALSIGRRDLADWLDWRIWSLPRRTLREADVPAAAMTGDTDAVRRLIDLGLAVDAVDAQGCTALLRAAGGGHLGVVTHLLGRGADPQRAANSGATPLSAAVSMRQTEIVAALLHAGAQIEHRLPGGVTVLMLACALGLPDIVARLLTAAADVHATDNQGLAPLHCAALYGFTARDKNRLLALLDTLLLAGADPDYLAGGRVSPLLLLLGARAEPGTSCDEQVVLAGVERLLDEDVSLDVADQRGFGPLHLAALHGLPLLVQRLLRAGADADRRDALNRTPREIAIMRGFIDVAGQFEPALPGVSSMARFLREGR | failed
LRKMIALIHKDYAKNLRLETLASVFNYNRAYLGKLFKNYTGEYFNTYLDKVRIENGKRLLQKGYKVYEVAEKIGYANVDYFHRKFKKYVGVSPSTFRKRHDHLQVYHD | failed
MNDDVEFRYADFLFKNNNYAEAIEVFNKLEAKKYNSPYIYNRRAVCYYELAKYDLAQKDIETYFSKVNATKAKSADFEYYGKILMKKGQDSLAIQQYQAAVDRDTTRLDMYGQIGSYFYNKGNFPLAIQYMSKQIRPTTTDPKVFYELGQAYYYNKEYVKADSSFVKVLELKPNIYIGYLWRARANAAQDPDTKQGLAKPYYEKLIEVCAPGGAKYKDELIEANEYIAYYYTINRDKVKADAAWKNILALDPTNKKAIDGLKMKLEHHHHHH | not failed
IGIVNDMPLAVEALRRALAFEPQHQIVWVASNGAEAVTQCAADTPDVVLMDLLMPVMDGVEATRRIMAESPCAIVIVTVDIEQNVHRVFEAMGYGALDAVNTPALGIGNPQTAAAPLLRKIQNVGWLIGQRDNRGKVQVVPPKAGGARQRLVAIGASAGGPASLAVLLKQLPASFNAAVVLVQHVDEVFAAGMAEWLASESKLPVRLARDGEPPIPGQILLAGTNNHIRLLRNGSLVYTAEPRSFVYRPSIDVFFESVANYWRGDAVGVLLTGMGRDGAQGLKQMRERGFLTIAQDQASCAVYGMPKAAAAIDAAVQILSLEKIA | failed
MLALKKKSVKAAFEALIPKIMEEGTEMVSEDGQKCKELMNTIIEITDPSDKSISEKYPLGERAVESYTEQLLHGSAATFVYDYHERIFEYPSDKKELKNDQIDYIVNKLKEQINSRRAIAITWNPYIDQTVKDVPCLQIVQFLIRDNKLYQTVLFRSNDAFLAFHANAIGLIALGEMVAEKLEIELAKYTHHSVSMHVYSERDIDALKKF | not failed
MSLWRLPMTLKTMTLAFAVTGLGVLAGSSPSVVQQRDGSQVVTPDEPKYNEDTGFYEYEKDGHKVQMNKDDVKTIEEVKLEHHHHHH | not failed
MKLIVAIVRPEKLNEVLEALFQAEVRGLTLSRVQGHGGETERVETYRGTTVKMELHEKVRLEIGVSEPFVKPTVEAILKAARTGEVGDGKIFVLPVEKVYRIRTGEEDEAAVTPVQ | not failed
MEFPKMLTRKIKLWDINAHITCRLCSGYLIDATTVTECLHTFCRSCLVKYLEENNTCPTCRIVIHQSHPLQYIGHDRTMQDIVYKLVPGLQEAEMRKQREFYHKLGMEVPGDIKGETCSAKQHLDSHRNGETKADDSSNKEAAEEKPEEDNDYHRSDEQVSICLECNSSKLRGLKRKWIRCSAQATVLHLKKFIAKKLNLSSFNELDILCNEEILGKDHTLKFVVVTRWRFKKAPLLLHYRPKMDLL | failed
MMEDDGQPRTLYVGNLSRDVTEVLILQLFSQIGPCKSCKMITEHTSNDPYCFVEFYEHRDAAAALAAMNGRKILGKEVKVNWATTPSSQK | not failed
MGTIGAAGCTVNRFAVALMPDSGGHPRKPIAGVDAPPPHLLLVARRMTRPGEHMALTTYTPVITVFAAGREWTLERAADLQTLWDNMVEADFGDDERLPYWTELWPSSLVLADWLHDNAGRIRGRTCLDMGCGLGLCSLVGQWLGARVTGMDYEPEALFHARRNAERNRVPQPLWTVMDWRAPAVRRHAADLVWGGDIMYERRFVTPVLDFLDHVLAPCGAAWVAEPGRTVYNHFRETLDARGWHARRVLSSETASLYEQPESVTVHLWEITRLEHHHHHH | failed
MKKGYMYIALTTIIFSTMEIALKLVSKSFNPIQLNFTRFFIGGLFLVPFALNTLHKRHLSISTKDLRFFALLGLLGTVISMSLYQLAVQNTKASVVAVLFSCNPVFVTILAFFLLREAIHKNNIAALILEVIGTIVIIDPLNTKLSILGLALTIASTLIFAAYGVFGKKKCAKYGGIVVTCFGFLFGSIEMLVLIGITHITPIANLFSSNGIAIFSNIPLFTGYSLKNLPLMCFICLINTGAGFACYFKAMEETSAQTTSLVFFFKPILAPILALILLHEIIPVNMIIGILFILAGSISSILPELLAQRQTKLEKTA | failed
MLKNFNGRPSLATVLKASTVAGIAAAVLATGVPLEITRSYAEAVKVQAPAVPSFANVVDAVSPAVVSVRVENRVNPVSDNNNDGFSFDFNGRGFDDLPDDHPLKRFFKQFGQDPNDQQGHSRRFGQNGPNGGPNGPGGKGRLRPVAQGSGFFISEDGYIVTNNHVVSDGQAFVAVMNDGTELDAKLIGKDPRTDLAVLKVDGKGKKFTYVNWADDNNVRVGDWVVAVGNPFGLGGTVTAGIVSARGRDIGSGPYDDYLQVDAAVNRGNSGGPTFNLSGEVVGINTAIFSPSGGSVGIAFAIPASTARDVVADLMKDGQVSRGWLGVQIQPVTKDIAESIGLSEPSGALVVAPQAGSPGDKAGMKAGDVVTALNGETIKDARDLSRRIGAMQPGSKVELSVWRAGKAQPLTVELGTLPIDQKDASADDNSQPQQPEAPASEKALADLGLTVGPSDDGKGLAITGIDPDSDAADKGIKEGEKITSVNNQEVASPEDVVKVLNQAKKDGRTRALFQIQSNEGSRFVALPINGQG | failed
MQSKAHALTFTVLPITQKTDQWSVKVSEAKNVKEFTRPHKGEYQVYSLGSQKYRGKSSYSGCAIVLEHHHHHH | not failed
MTTEAPIWPAELFEDLDRNGPIPLYFQVAQRLEDGIRSGVLPPGARLENEISVAKHLNVSRPTVRRAIQEVVDKGLLVRRRGVGTQVVQSHVTRPVELTSFFNDLKNANLDPKTRVLEHRLLAASSAIAEKLGVSAGDEVLLIRRLRSTGDIPVAILENYLPPAFNDVSLDELEKGGLYDALRSRGVVLKIANQKIGARRAVGEESTLLDIEDGGPLLTVERVALDNSGQVIELGSHCYRPDMYNFETTLVAR | not failed
MADFVAASGQLGFWTYCLLMIGSVFSGMTLIGVAGLAFTTGYANVWERIIGPPFAIAFGTILIGYKLFNLKDKNGILTIQDYLAFRYDDPKIIRILAGLISAVTCFVYLIGQYTAIGVVSYVVLGIPYWLGAVIAAVIVVAYVMSGGMFSTAWTTFLQSILMLLGIYVTVPFIIAWVGGFEAMNQALAAMPEIQNATRGVAENFMFAKYLSKPFAPASVPLAGWVYNLTLFGITVPLGLMVAPHIVNNMLTFRKIEYTRWGPLVMYVIGFSAIFLTALAGMAARVAWAKGMIDIPSLTLGSIEVKWSDMAYPTIASKALPYWLFVLLLPTILAGVMSTTDRLILTAANNISYDVLRNALGKNLSENALKKVNMLVVPLIGFGSLLIALFPQQLLAWFIWAALSLMTNCFFFPIMLGLYWDRMTKNAARLSMIAGFVVTLATFAIYGKTIYIAGIPAYSVLPGFVASFVLAVGVSLLEKG | failed
MQTSFCVLVSIIERMPTWNDIKVRNPQHSHNYAKRWENLEAEGNDINGEARLIDALVQRGSKILDAGCGQGRVGGYLSARGHIVTGIDIDDYLISEAEKKFPSATWHVGDLGSESIPDQGFDIAVCAGNVITFIEPDKQEAALAHIFEALRPNGRCIIGFGAGRGYVFPQFFEDARNVGFVIENNFESWGLNPLTNRSQFLVAFLRKPELEHHHHHH | failed
MEIKSILIANRGEIALRALRTIKEMGKKAICVYSEADKDALYLKYADASICIGKARSSESYLNIPAIIAAAEIAEADAIFPGYGFLSENQNFVEICAKHNIKFIGPSVEAMNLMSDKSKAKQVMQRAGVPVIPGSDGALAGAEAAKKLAKEIGYPVILKAAAGGGGRGMRVVENEKDLEKAYWSAESEAMTAFGDGTMYMEKYIQNPRHIEVQVIGDSFGNVIHVGERDCSMQRRHQKLIEESPAILLDEKTRTRLHETAIKAAKAIGYEGAGTFEFLVDKNLDFYFIEMNTRLQVEHCVSEMVSGIDIIEQMIKVAEGYALPSQESIKLNGHSIECRITAEDSKTFLPSPGKITKYIPPAGRNVRMESHCYQDYSVPAYYDSMIGKLVVWAEDRNKAIAKMKVALDELLISGIKTTKDFHLSMMENPDFINNNYDTNYLARH | not failed
MALREQWAETAMGVVVLALTAGFLTYSLTVGGVHMKRGDYEISAKFGEAGSLAPGAAVTVAGVKVGTVSQITLEPKTYLAVAKLSIDPTVKLPADSTAKITSDGLLGGAHVAIAPGASLDDLKPGGEIENTQGAVDLFGLIGSVIRPQGGAATTSTPAEANPATQPAESYLEHHHHHH | not failed
STSPTATKYDVFLSFRGVDTRRNFISFLYKEFVRRKIRTFKDDKELENGRRISPELKRAIEESKFAVVVVSVNYAASPWCLDELVKIMDFENKGSITVMPIFYGVDPCHLRRQIGDVAEQFKKHEAREEDHEKVASWRRALTSLASISGDCSSKCEDEAKLVDEIADKISKNLMTVTTISNGKNLVGIDTHMKALNKKLDLNSNKSLRVVGIWARGYNGRSALAKYVYQDICHHFDSHCFLGSVKRISQGRHLSHLHEEFLIRIQGSKHNLKDQKVLLVADDVYKLEQLDALAEDFNGFGPGSVVIITTQDKHLFVSAGIKLVYEVELLKFQKVCELFRQFAFKKRDISAAVKLVYYRATNWLGCLSGRSG | failed
